{"source": "patent US20230220007A1", "about": "“SETD7 EPIGENETIC MODULATORS” (Biorchestra Co., Ltd., priority 2020, published 2023)", "key": {"[1]": {"test_system": "histone", "conditions": "cited from earlier work; for monomethyl transferase activity: SETD7 substitution mutants"}, "[2]": {"test_system": "human retinal pigment epithelial cells (RPE)", "assay": "Nuclear translocation of SETD7 alanine (phospho-disrupting) mutants in response to high glucose levels", "format": "cell-based", "conditions": "mutants expressed in human RPE cells; FIG. 3", "from_the_text": "To identify the potential role of phosphorylatable sites located in the C-terminal regions of SETD7 (FIG. 1), phosphorylatable serines, threonines and tyrosines at positions 225, 305, 332, 340, and 345 where mutated to alanine (phospho-disrupting mutations) and expressed in human retinal pigment epithelial cells (RPE). Nuclear translocation or lack thereof in response to high glucose levels was examined (FIG. 2).\nSETD7 cellular distribution changed in response to changes in glucose levels for wild type SETD7 (WT) and SETD7 mutants comprising a S225A substitution or a Y305A substitutions."}, "[3]": {"test_system": "human retinal pigment epithelial (RPE) cells", "assay": "Cellular distribution of SETD7-GFP mutants under low or high glucose (GFP fluorescence)", "format": "cell-based", "conditions": "SETD7-GFP mutants in human RPE cells; low glucose and high glucose conditions; FIG. 4", "method": "SETD7-GFP mutants with phospho-mimicking substitutions at positions 332, 340 and/or 345 were prepared. The phospho-mimicking substitutions were T332E, S340D, and/or S345D. The SETD7-GFP mutants were expressed in human retinal pigment epithelial (RPE) cells. The fluorescence intensity emitted from the GFP signal in the cells under high or low glucose condition was measured."}}, "data": [{"molecule": "K358A: SETD7 substitution mutant at position 358 (protein) MDSDDEMVEEAVEGHLDDDGLPHGFCTVTYSSTDRFEGNFVHGEKNGRGKFFFFDGSTLEGYYVDDALQGQGVYTYEDGGVLQGTYVDGELNGPAQEYDTDGRLIFKGQYKDNIRHGVCWIYYPDGGSLVGEVNEDGEMTGEKIAYVYPDERTALYGKFIDGEMIEGKLATLMSTEEGRPHFELMPGNSVYHFDKSTSSCISTNALLPDPYESERVYVAESLISSAGEGLFSKVAVGPNTVMSFYNGVRITHQEVDSRDWALNGNTLSLDEETVIDVPEPYNHVSKYCASLGHKANHSFTPNCIYDMFVHPRFGPIKCIRTLRAVEADEELTVAYGYDHSPPGKSGPEAPEWYQVELAAFQATQQK", "values": [{"measurement": "monomethyl transferase activity", "setting": "[1]", "result": "partial loss"}]}, {"molecule": "Q361A: SETD7 substitution mutant at position 361 (protein) MDSDDEMVEEAVEGHLDDDGLPHGFCTVTYSSTDRFEGNFVHGEKNGRGKFFFFDGSTLEGYYVDDALQGQGVYTYEDGGVLQGTYVDGELNGPAQEYDTDGRLIFKGQYKDNIRHGVCWIYYPDGGSLVGEVNEDGEMTGEKIAYVYPDERTALYGKFIDGEMIEGKLATLMSTEEGRPHFELMPGNSVYHFDKSTSSCISTNALLPDPYESERVYVAESLISSAGEGLFSKVAVGPNTVMSFYNGVRITHQEVDSRDWALNGNTLSLDEETVIDVPEPYNHVSKYCASLGHKANHSFTPNCIYDMFVHPRFGPIKCIRTLRAVEADEELTVAYGYDHSPPGKSGPEAPEWYQVELKAFAATQQK", "values": [{"measurement": "monomethyl transferase activity", "setting": "[1]", "result": "partial loss"}]}, {"molecule": "Q365A: SETD7 substitution mutant at position 365 (protein) MDSDDEMVEEAVEGHLDDDGLPHGFCTVTYSSTDRFEGNFVHGEKNGRGKFFFFDGSTLEGYYVDDALQGQGVYTYEDGGVLQGTYVDGELNGPAQEYDTDGRLIFKGQYKDNIRHGVCWIYYPDGGSLVGEVNEDGEMTGEKIAYVYPDERTALYGKFIDGEMIEGKLATLMSTEEGRPHFELMPGNSVYHFDKSTSSCISTNALLPDPYESERVYVAESLISSAGEGLFSKVAVGPNTVMSFYNGVRITHQEVDSRDWALNGNTLSLDEETVIDVPEPYNHVSKYCASLGHKANHSFTPNCIYDMFVHPRFGPIKCIRTLRAVEADEELTVAYGYDHSPPGKSGPEAPEWYQVELKAFQATQAK", "values": [{"measurement": "monomethyl transferase activity", "setting": "[1]", "result": "partial loss"}]}, {"molecule": "K366A: SETD7 substitution mutant at position 366 (protein) MDSDDEMVEEAVEGHLDDDGLPHGFCTVTYSSTDRFEGNFVHGEKNGRGKFFFFDGSTLEGYYVDDALQGQGVYTYEDGGVLQGTYVDGELNGPAQEYDTDGRLIFKGQYKDNIRHGVCWIYYPDGGSLVGEVNEDGEMTGEKIAYVYPDERTALYGKFIDGEMIEGKLATLMSTEEGRPHFELMPGNSVYHFDKSTSSCISTNALLPDPYESERVYVAESLISSAGEGLFSKVAVGPNTVMSFYNGVRITHQEVDSRDWALNGNTLSLDEETVIDVPEPYNHVSKYCASLGHKANHSFTPNCIYDMFVHPRFGPIKCIRTLRAVEADEELTVAYGYDHSPPGKSGPEAPEWYQVELKAFQATQQA", "values": [{"measurement": "monomethyl transferase activity", "setting": "[1]", "result": "partial loss"}]}, {"molecule": "K294A: SETD7 substitution mutant at position 294 (protein) MDSDDEMVEEAVEGHLDDDGLPHGFCTVTYSSTDRFEGNFVHGEKNGRGKFFFFDGSTLEGYYVDDALQGQGVYTYEDGGVLQGTYVDGELNGPAQEYDTDGRLIFKGQYKDNIRHGVCWIYYPDGGSLVGEVNEDGEMTGEKIAYVYPDERTALYGKFIDGEMIEGKLATLMSTEEGRPHFELMPGNSVYHFDKSTSSCISTNALLPDPYESERVYVAESLISSAGEGLFSKVAVGPNTVMSFYNGVRITHQEVDSRDWALNGNTLSLDEETVIDVPEPYNHVSKYCASLGHAANHSFTPNCIYDMFVHPRFGPIKCIRTLRAVEADEELTVAYGYDHSPPGKSGPEAPEWYQVELKAFQATQQK", "values": [{"measurement": "catalytic activity (e.g., monomethyl transferase activity)", "setting": "[1]", "result": "reduces"}]}, {"molecule": "WT SETD7: wild type histone-lysine N-methyltransferase SETD7, full length (SEQ ID NO: 37) (protein) MDSDDEMVEEAVEGHLDDDGLPHGFCTVTYSSTDRFEGNFVHGEKNGRGKFFFFDGSTLEGYYVDDALQGQGVYTYEDGGVLQGTYVDGELNGPAQEYDTDGRLIFKGQYKDNIRHGVCWIYYPDGGSLVGEVNEDGEMTGEKIAYVYPDERTALYGKFIDGEMIEGKLATLMSTEEGRPHFELMPGNSVYHFDKSTSSCISTNALLPDPYESERVYVAESLISSAGEGLFSKVAVGPNTVMSFYNGVRITHQEVDSRDWALNGNTLSLDEETVIDVPEPYNHVSKYCASLGHKANHSFTPNCIYDMFVHPRFGPIKCIRTLRAVEADEELTVAYGYDHSPPGKSGPEAPEWYQVELKAFQATQQK", "values": [{"measurement": "nuclear translocation in response to changes in glucose", "setting": "[2]", "result": "translocated normally to the nucleus"}]}, {"molecule": "S225A: SETD7 mutant, Ser225 mutated to alanine (phospho-disrupting mutation) (protein) MDSDDEMVEEAVEGHLDDDGLPHGFCTVTYSSTDRFEGNFVHGEKNGRGKFFFFDGSTLEGYYVDDALQGQGVYTYEDGGVLQGTYVDGELNGPAQEYDTDGRLIFKGQYKDNIRHGVCWIYYPDGGSLVGEVNEDGEMTGEKIAYVYPDERTALYGKFIDGEMIEGKLATLMSTEEGRPHFELMPGNSVYHFDKSTSSCISTNALLPDPYESERVYVAESLISAAGEGLFSKVAVGPNTVMSFYNGVRITHQEVDSRDWALNGNTLSLDEETVIDVPEPYNHVSKYCASLGHKANHSFTPNCIYDMFVHPRFGPIKCIRTLRAVEADEELTVAYGYDHSPPGKSGPEAPEWYQVELKAFQATQQK", "values": [{"measurement": "nuclear translocation in response to changes in glucose", "setting": "[2]", "result": "translocated normally to the nucleus"}]}, {"molecule": "Y305A: SETD7 mutant, Tyr305 mutated to alanine (phospho-disrupting mutation) (protein) MDSDDEMVEEAVEGHLDDDGLPHGFCTVTYSSTDRFEGNFVHGEKNGRGKFFFFDGSTLEGYYVDDALQGQGVYTYEDGGVLQGTYVDGELNGPAQEYDTDGRLIFKGQYKDNIRHGVCWIYYPDGGSLVGEVNEDGEMTGEKIAYVYPDERTALYGKFIDGEMIEGKLATLMSTEEGRPHFELMPGNSVYHFDKSTSSCISTNALLPDPYESERVYVAESLISSAGEGLFSKVAVGPNTVMSFYNGVRITHQEVDSRDWALNGNTLSLDEETVIDVPEPYNHVSKYCASLGHKANHSFTPNCIADMFVHPRFGPIKCIRTLRAVEADEELTVAYGYDHSPPGKSGPEAPEWYQVELKAFQATQQK", "values": [{"measurement": "nuclear translocation in response to changes in glucose", "setting": "[2]", "result": "translocated normally to the nucleus"}]}, {"molecule": "S345: SETD7 mutant, Ser345 mutated to alanine (phospho-disrupting mutation) (protein, UniProt Q8WTS6 1-366, looked up, variant S345A) Histone-lysine …: MDSDDEMVEEAVEGHLDDDGLPHGFCTVTYSSTDRFEGNFVHGEKNGRGKFFFFDGSTLEGYYVDDALQGQGVYTYEDGGVLQGTYVDGELNGPAQEYDTDGRLIFKGQYKDNIRHGVCWIYYPDGGSLVGEVNEDGEMTGEKIAYVYPDERTALYGKFIDGEMIEGKLATLMSTEEGRPHFELMPGNSVYHFDKSTSSCISTNALLPDPYESERVYVAESLISSAGEGLFSKVAVGPNTVMSFYNGVRITHQEVDSRDWALNGNTLSLDEETVIDVPEPYNHVSKYCASLGHKANHSFTPNCIYDMFVHPRFGPIKCIRTLRAVEADEELTVAYGYDHSPPGKAGPEAPEWYQVELKAFQATQQK", "values": [{"measurement": "nuclear translocation in response to changes in glucose", "setting": "[2]", "result": "did not translocate to the nucleus"}]}, {"molecule": "SETD7 T332E: SETD7-GFP mutant with phospho-mimicking substitution T332E (protein, UniProt Q8WTS6 1-366, looked up, variant T332E, GFP tag) Histone-lysine …: MDSDDEMVEEAVEGHLDDDGLPHGFCTVTYSSTDRFEGNFVHGEKNGRGKFFFFDGSTLEGYYVDDALQGQGVYTYEDGGVLQGTYVDGELNGPAQEYDTDGRLIFKGQYKDNIRHGVCWIYYPDGGSLVGEVNEDGEMTGEKIAYVYPDERTALYGKFIDGEMIEGKLATLMSTEEGRPHFELMPGNSVYHFDKSTSSCISTNALLPDPYESERVYVAESLISSAGEGLFSKVAVGPNTVMSFYNGVRITHQEVDSRDWALNGNTLSLDEETVIDVPEPYNHVSKYCASLGHKANHSFTPNCIYDMFVHPRFGPIKCIRTLRAVEADEELEVAYGYDHSPPGKSGPEAPEWYQVELKAFQATQQK", "values": [{"measurement": "translocation to the nucleus", "setting": "[3]", "result": "translocated to the nucleus"}]}, {"molecule": "SETD7 S340D: SETD7-GFP mutant with phospho-mimicking substitution S340D (protein, UniProt Q8WTS6 1-366, looked up, variant S340D, GFP tag) Histone-lysine …: MDSDDEMVEEAVEGHLDDDGLPHGFCTVTYSSTDRFEGNFVHGEKNGRGKFFFFDGSTLEGYYVDDALQGQGVYTYEDGGVLQGTYVDGELNGPAQEYDTDGRLIFKGQYKDNIRHGVCWIYYPDGGSLVGEVNEDGEMTGEKIAYVYPDERTALYGKFIDGEMIEGKLATLMSTEEGRPHFELMPGNSVYHFDKSTSSCISTNALLPDPYESERVYVAESLISSAGEGLFSKVAVGPNTVMSFYNGVRITHQEVDSRDWALNGNTLSLDEETVIDVPEPYNHVSKYCASLGHKANHSFTPNCIYDMFVHPRFGPIKCIRTLRAVEADEELTVAYGYDHDPPGKSGPEAPEWYQVELKAFQATQQK", "values": [{"measurement": "translocation to the nucleus", "setting": "[3]", "result": "translocated to the nucleus"}]}]}
